This assay deals with histone octamer.

As to “nucleosome assembly protein 1 (yNap1) (from UniProt P25293 1-417) (natural protein)”, the nucleosome formation fraction (package ratio, 15 min) of tethered 836-bp DNA in single-molecule TPM, 7.5 nM histone octamer pre-incubated with 15 nM yNap1, 150 mM NaCl (87.3 % without chaperone) came to 70.5%.

For the origin of these results see publication PMC4303269.
